In the assay the target is Akt WT (transfected), P31749. The experiment in a line: co-immunoprecipitation (K8/K18 IP, Akt immunoblot, quantified). The conditions noted are these: chain shown with the change, BHK-21 cells transfected with Akt WT, parent: est. 1.0, read off a plot. (Immunoblotting shows a protein as a band on a membrane.)

We go through 4 molecules from PMC8430995.

Substitutions are numbered along the chain they refer to. Names and notes keep the numbering of the source.

Akt WT (transfected), P31749, sequence (P31749 whole entry): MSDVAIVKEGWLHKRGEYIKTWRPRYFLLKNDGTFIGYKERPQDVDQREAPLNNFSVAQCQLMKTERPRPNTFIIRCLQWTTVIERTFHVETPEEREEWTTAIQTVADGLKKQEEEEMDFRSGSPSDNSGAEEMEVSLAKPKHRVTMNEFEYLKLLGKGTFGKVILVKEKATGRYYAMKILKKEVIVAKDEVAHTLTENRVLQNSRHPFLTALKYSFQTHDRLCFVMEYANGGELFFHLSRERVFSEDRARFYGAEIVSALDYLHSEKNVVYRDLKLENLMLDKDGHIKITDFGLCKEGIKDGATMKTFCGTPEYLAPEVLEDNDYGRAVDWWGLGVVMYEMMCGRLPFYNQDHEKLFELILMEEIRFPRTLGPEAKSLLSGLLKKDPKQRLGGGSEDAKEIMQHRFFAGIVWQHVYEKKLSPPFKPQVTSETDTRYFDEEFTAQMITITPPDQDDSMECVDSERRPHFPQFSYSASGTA

B1: K8 WT/K18 WT (transfected), P05787;P05783 K8:G434S (protein)
chain 1: MSIRVTQKSYKVSTSGPRAFSSRSYTSGPGSRISSSSFSRVGSSNFRGGLGGGYGGASGMGGITAVTVNQSLLSPLVLEVDPNIQAVRTQEKEQIKTLNNKFASFIDKVRFLEQQNKMLETKWSLLQQQKTARSNMDNMFESYINNLRRQLETLGQEKLKLEAELGNMQGLVEDFKNKYEDEINKRTEMENEFVLIKKDVDEAYMNKVELESRLEGLTDEINFLRQLYEEEIRELQSQISDTSVVLSMDNSRSLDMDSIIAEVKAQYEDIANRSRAEAESMYQIKYEELQSLAGKHGDDLRRTKTEISEMNRNISRLQAEIEGLKGQRASLEAAIADAEQRGELAIKDANAKLSELEAALQRAKQDMARQLREYQELMNVKLALDIEIATYRKLLEGEESRLESGMQNMSIHTKTTSGYAGGLSSAYGGLTSPSLSYSLGSSFGSGAGSSSFSRTSSSRAVVVKKIETRDGKLVSESSDVLPK
chain 2: MSFTTRSTFSTNYRSLGSVQAPSYGARPVSSAASVYAGAGGSGSRISVSRSTSFRGGMGSGGLATGIAGGLAGMGGIQNEKETMQSLNDRLASYLDRVRSLETENRRLESKIREHLEKKGPQVRDWSHYFKIIEDLRAQIFANTVDNARIVLQIDNARLAADDFRVKYETELAMRQSVENDIHGLRKVIDDTNITRLQLETEIEALKEELLFMKKNHEEEVKGLQAQIASSGLTVEVDAPKSQDLAKIMADIRAQYDELARKNREELDKYWSQQIEESTTVVTTQSAEVGAAETTLTELRRTVQSLEIDLDSMRNLKASLENSLREVEARYALQMEQLNGILLHLESELAQTRAEGQRQAQEYEALLNIKVKLEAEIATYRRLLEDGEDFNLGDALDSSNSMQTIQKTTTRRIVDGKVVSETNDTKVLRH
Regarding B1, the ratio to parent (K18 WT and the K8 mutant) is 1.2.

B2: K8 WT/K18 WT (transfected), P05787;P05783 K8:G62C (protein)
chain 1: B1 chain 1 with G62C, S434G
chain 2: B1 chain 2
For B2, under “K18 WT and the K8 mutant”, the ratio to parent amounted to 1.7.

B3: K8 WT/K18 WT (transfected), P05787;P05783 K18:D238E; K18:D396E (protein)
chain 1: B1 chain 1 with S434G
chain 2: B1 chain 2 with D238E, D397E
As for B3, the ratio to parent (K8 WT and the K18 mutant) was found to be 1.2.

B4: K8 WT/K18 WT (transfected), P05787;P05783 K8:R302C (protein)
chain 1: B1 chain 1 with R302C, S434G
chain 2: B1 chain 2
For the molecule B4, for the setting “K18 WT and the K8 mutant”, the ratio to parent was determined as 1.8.
